Substitutions are numbered along the chain they refer to.
B1: anti-ZIKV antibody 242-3 (antibody, V domains shown)
VH: QAQLEESGGDLVKPEGSLTLTCTASGFSFTDRHYMCWIRQAPGKGLEWIACVYPGSSGSTYYASWARGRFTISKTSSTTVTLRMTSLTAADTATYFCARSSYPDSSGYSYGMDLWGPGTLVTVSS
VL: DIVMTQTPASVEAAVGGTVTIKCQASQNINSNLAWYQQKPGQRPKFLMYLTSKLASGVPSRFRGSGSGTQFTLTISDLECADAATYYCQTYYDISNYGYAFGGGTEVVVK
notes: also called clone 242-3
B2: anti-ZIKV antibody 270-12 (antibody, V domains shown)
VH: B1 VH with I38V
VL: DIVMTQTPASVEAAVGGTVTIKCQASQDINSNLAWYQQKPGQRPKFLMYLTSKLASGVPSRFRGSGSGTQFTLTISDLECADAATYYCQTYYDISNYGYAFGGGTEVVVKG
notes: also called clone 270-12
B3: anti-ZIKV antibody 306-2 (antibody, V domains shown)
VH: QSLEESGGDLVKPGASLTLTCTASGFDFSDRYYMCWVRQAPGKGLEWIGCIYVGSGDTYYASWAKGRFTISRTSSTTVTLQMTRLTAADTATYFCARHPGTYFTLWGPGTLVTVSS
VL: DVVMTQTPSSVSAAVGGTVTINCQASQNIVNNLAWYQQRPGQPPKLLIYDTSTLASGVPSRFKGSGSGTEFTLTISDLECADAATYYCQTYYYYNKIINGFGGGTEVVVKG
B4: anti-ZIKV antibody 289-3 (antibody, V domains shown)
VH: QEELEESGGDLVKPGASLTLTCKASGFSFSSGAYICWVRQAPGKGPEWIACIYTGDGRTYYANWAKRRFTISSSSSTTVALEMPSLTDADTATYFCARAIAVGAGYGVGNYFTLWGPGTLVTVSS
VL: DIVMTQTPSSVSAAVGGTVTINCHASENIYGYLSWYQQKPGQPPKLLIYKASTLASGVPSRFKGSGAGTQFTLTITALECADAATYYCQSYYTSSSNADGSENAFGGGTEVVVEG
notes: also called clone 289-3; subclone 289-3
B5: anti-ZIKV antibody 78-2 (antibody, V domains shown)
VH: QQQLVESGGGLVKPGASLTLNCKASGLDFSTNSYMCWVRQAPGKGLEWIACIYVGDSSEIYYASWAKGRFTISKTSSTTVTLQMTSLTAADTATYFCARDLPSFTAPYAGYLRLWGPGTLVTVSS
VL: QPVLTQPPSLSASLGTTARLTCTLRTGYNVGDYPLLWLQRVPGRPPRYLLTYHTEEFKHQGSGVHSRFSGSKDASENAGVLSISGLQPEDEANYYCYTVHATESSLHYVFGGGTQLTVTG
notes: also called clone 78-2
B6: anti-ZIKV antibody 11-3 (antibody, V domains shown)
VH: QEQLVESGGGLVQPEGSLTITCTGSGFSFSSRFYMCWVRQAPGKGLEWIACIYGGSSGSTYYASWAKGRFTISKTSSTTVTLQISSLTAADTATYFCARGGSTAAAGFNLWGPGTLLTVSS
VL: DVVMTQTPASVSATVGGTVTIKCQASEDIYNLLAWYQQKPGQPPKLLIYYASTLASGVPSRFKGSGSGTEFTLTISDLECADAATYYCQCNDYGGTYVPNAFGGGTEVVVKG
notes: also called clone 11-3

These binders were tested against T1, ZIKV-VLP (Native Antigen Inc.) (Zika virus) (assay: ELISA, hybridoma supernatant (Abcam data)).
T1 construct: also called Zika VLP; ZVLP

Binder	OD
B1	0.97 OD
B2	1.27 OD
B3	1.15 OD
B4	0.94 OD
B5	2.67 OD
B6	2.83 OD

The binders below were run against T1, ZIKV-VLP (Native Antigen Inc.) (assay: BLI binning on ZIKV-VLP; 1st mAb: 289-3).

Binder	response of 2nd mAb
B1	0.04
B2	0.02
B3	0.03
B4	0.02
B5	0.32
B6	0.42

Each binder was assayed against T1, ZIKV-VLP (Native Antigen Inc.) (assay: BLI binning on ZIKV-VLP; 1st mAb: 270-12).

Binder	response of 2nd mAb
B1	0.04
B2	0.02
B3	-0.01
B4	0.02
B5	0.28
B6	0.38

What follows are binders tested against T1, ZIKV-VLP (Native Antigen Inc.) (assay: BLI binning on ZIKV-VLP; 1st mAb (row): 306-2).

Binder	response of 2nd mAb
B1	0.0732
B2	0.0432
B3	0.0225
B4	0.0428

The binders below were run against T1, ZIKV-VLP (Native Antigen Inc.) (assay: BLI binning on ZIKV-VLP; 1st mAb (row): 289-3).

Binder	response of 2nd mAb
B1	0.0219
B2	0.0261
B3	0.023
B4	0.0128

What follows are binders tested against T1, ZIKV-VLP (Native Antigen Inc.) (assay: BLI binning on ZIKV-VLP; 1st mAb (row): 242-3).

Binder	response of 2nd mAb
B1	0.005
B2	-0.0103
B3	0.019
B4	0.0011

The binders below were run against T1, ZIKV-VLP (Native Antigen Inc.) (assay: BLI binning on ZIKV-VLP; 1st mAb: 306-2).

Binder	response of 2nd mAb
B1	0.08
B2	0.31
B3	0.01
B4	0.24
B5	0.28
B6	0.43

The binders below were run against T1, ZIKV-VLP (Native Antigen Inc.) (assay: BLI binning on ZIKV-VLP; 1st mAb: C10).

Binder	response of 2nd mAb
B1	5.12
B2	4.27
B3	4.54
B4	4.55
B5	3.41
B6	3.14

The binders below were run against T1, ZIKV-VLP (Native Antigen Inc.) (assay: BLI binning on ZIKV-VLP; 1st mAb: Ab2).

Binder	response of 2nd mAb
B1	7.67
B2	3.5
B3	4.51
B4	3.79
B5	2.46
B6	2.71

The binders below were run against T1, ZIKV-VLP (Native Antigen Inc.) (assay: BLI binning on ZIKV-VLP; 1st mAb (row): C10).

Binder	response of 2nd mAb
B1	0.0363
B2	0.0344
B3	-0.0006
B4	0.0265

These binders were tested against T1, ZIKV-VLP (Native Antigen Inc.) (assay: BLI binning on ZIKV-VLP; 1st mAb (row): 102-1).

Binder	response of 2nd mAb
B1	0.0181
B2	-0.004
B3	0.0269
B4	0.0047

The binders below were run against T1, ZIKV-VLP (Native Antigen Inc.) (assay: BLI binning on ZIKV-VLP; 1st mAb: 181-4).

Binder	response of 2nd mAb
B1	0.02
B2	0.01
B3	-0.02
B4	0.01
B5	0.3
B6	0.39

These binders were tested against T1, ZIKV-VLP (Native Antigen Inc.) (assay: BLI binning on ZIKV-VLP; 1st mAb: 4G2).

Binder	response of 2nd mAb
B1	0.93
B2	0.91
B3	0.64
B4	1.04
B5	0.52
B6	0.75

Each binder was assayed against T1, ZIKV-VLP (Native Antigen Inc.) (assay: indirect ELISA, subclone supernatant).

Binder	VLP (OD) binding
B1	0.97 OD
B3	1.15 OD
B4	0.94 OD

These binders were tested against T1, ZIKV-VLP (Native Antigen Inc.) (assay: BLI binning on ZIKV-VLP; 1st mAb: 11-3).

Binder	response of 2nd mAb
B1	0.4
B2	0.47
B3	0.34
B4	0.52
B5	0.42
B6	0.06

What follows are binders tested against T1, ZIKV-VLP (Native Antigen Inc.) (assay: BLI binning on ZIKV-VLP; 1st mAb: Ab1).

Binder	response of 2nd mAb
B1	0.25
B2	0.34
B3	0.19
B4	0.4
B5	0.38
B6	0.41

Each binder was assayed against T1, ZIKV-VLP (Native Antigen Inc.) (assay: ELISA, purified recombinant mAb).

Binder	ELISA OD
B1	3.07 OD
B3	3.3 OD
B4	3.21 OD

Each binder was assayed against T1, ZIKV-VLP (Native Antigen Inc.) (assay: BLI binning on ZIKV-VLP; 1st mAb: 242-3).

Binder	response of 2nd mAb
B1	0.08
B2	0.04
B3	0.04
B4	0.07
B5	0.33
B6	0.42

What follows are binders tested against T1, ZIKV-VLP (Native Antigen Inc.) (assay: BLI binning on ZIKV-VLP; 1st mAb: 260-2).

Binder	response of 2nd mAb
B1	0.06
B2	0
B3	0
B4	0.04
B5	0.33
B6	0.47

What follows are binders tested against T1, ZIKV-VLP (Native Antigen Inc.) (assay: BLI binning on ZIKV-VLP; 1st mAb: 329-2).

Binder	response of 2nd mAb
B1	-0.01
B2	0
B3	-0.03
B4	-0.01
B5	0.33
B6	0.44

These binders were tested against T1, ZIKV-VLP (Native Antigen Inc.) (assay: BLI binning on ZIKV-VLP; 1st mAb: 102-1).

Binder	response of 2nd mAb
B1	0.1
B2	0.07
B3	0.07
B4	0.09
B5	0.32
B6	0.45

The binders below were run against T1, ZIKV-VLP (Native Antigen Inc.) (assay: BLI (Octet), supernatant IgG captured on Protein A biosensor, ZIKV-VLP 3.3 µg/mL in solution, 1:1 model).

Binder	koff
B1	< 1e-07 s⁻¹
B3	< 1e-07 s⁻¹
B4	0.000113 s⁻¹
B5	< 1e-07 s⁻¹
B6	< 1e-07 s⁻¹

These binders were tested against T1, ZIKV-VLP (Native Antigen Inc.) (assay: indirect ELISA, purified antibody serially diluted from 10 µg/ml).

Binder	EC50
B2	0.0128 µg/mL
B4	0.00724 µg/mL
B5	0.0319 µg/mL
B6	0.00657 µg/mL

These binders were tested against T1, ZIKV-VLP (Native Antigen Inc.) (assay: BLI binning on ZIKV-VLP; 1st mAb: 78-2).

Binder	response of 2nd mAb
B1	0.18
B2	0.44
B3	0.26
B4	0.46
B5	0.06
B6	0.23

What follows are binders tested against T1, ZIKV-VLP (Native Antigen Inc.) (assay: BLI binning on ZIKV-VLP; 1st mAb (row): 270-12).

Binder	response of 2nd mAb
B1	0.0325
B2	0.0171
B3	0.0125
B4	0.0064
